To fix the notation:
B2: CC40.8 mAb (antibody, V domains shown)
VH: EVQLLESGGGLVQPGGSLRLSCAASGFTFSSYVMTWARQAPGKGLEWVSAISGTGYTYYADSVKGRFTVSRDNSKNTLFLQMSSLRAEDTAVYYCAITMAPVVWGQGTTVTVSS
VL: SYELTQPPSVSVSPGQTARITCSGDALPKRYAYWYQQKSGQAPILVIYEDKKRPSGIPERLSGSKSGTVATLTISGAQVEDEADYYCYSTDSSGNHAVFGGGTQLTVL
B4: DH1057.1 mAb (antibody, V domains shown)
VH: EVQLVESGTEVKKPGASVKVSCKTSGYIFTNYYIHWVRQAPGQGLEWMGIFNPNGGGTSYAQKFQGRITLTGNTSANTGYMVLRSLTSEDTAVYYCARDPRTSGDNDGFDMWGQGTKVTVSS
VL: VLTQSPATLSLSPGERATLSCRASQSLSSYNYLAWYQQKPGQAPRLLIYAASKRATGIPARFSGSGSGTDFTLTISSLEPEDFAVYFCQQRSNRPPAWTFGQGTKVEIK
B6: S2P6 mAb (antibody, V domains shown)
VH: EVQLVQSGAEVKKPGASVKVSCKASGYTFTSQYMHWVRQAPGQGLEWIGIINPSGVHTSYAQKFQGRVTLTRDTSTSTLYMELSSLRSEDTAVYYCARGSPKGAFDYWGQGTLVTVSS
VL: not shown

Targets include FP-10 epitope scaffold; FP-2 epitope scaffold; DH1057UCA; CC40.8iGL; S2P6iGL; S2hlx-13; S2hlx-4 epitope scaffold; S2hlx-14; S2hlx-1; S2hlx-8.
Holding throughout (test): SPR
For orientation: In SPR one partner is held on a chip, and binding of the other changes the refractive index at the surface.

Assay [1] concerns the target S2hlx-Ex17 epitope scaffold.
The target of assay [2] is S2hlx-Ex20 epitope scaffold.
The target of assay [3] is S2hlx-Ex15 epitope scaffold.
Assay [4] has as its target B6.
The target in the assay “CC40.8 mAb” is B2.
Assay [5] deals with B4.
The target in assay [6] is B6. This is another data set of the same source.
For assay [7], the target named is B4. This is another data set of the same source.
Assay [8] has as its target S2hlx-15 epitope scaffold.
Assay [9] addresses B6. This is another data set of the same source.
In assay [10] the target is B4. The source holds these as a separate data set.
Assay [11] has as its target B6. This is another data set of the same source.
Assay [12] has as its target B4. The source holds these as a separate data set.

Where two headings read alike, the source gives them in different places.

B1: DH1058 mAb (antibody, V domains shown)
VH: QVQLVQSGGGVVQPGRSLRLSCAASGFNFGDFGMHWVRQAPGKGLEWVAVISYEGRNKNHADSVRGRFTISRDNSRNMLYLQMNSLRRGDTAVYYCAKENRDRNYDSWSASYSDYYYGMDVWGQGTTVTVSS
VL: DIVMTQSPSFLSASVGDRVTITCRASQGIDRYLAWYQQKPGSAPKLLIYAASTLQSGVPSRFSGSGSETDFTLTISSLQPDDFATYYCQQLSTYPTITFGQGTRLEIK
Consider B1, for which, in the assay with FP-10 epitope scaffold, the Kd – broadly, the constant that tells how readily two partners part at equilibrium – stood at 0.3 nM and the koff – broadly, a measure of how fast the partners let go of each other – was 0.00068 s⁻¹. Also, in the assay with FP-2 epitope scaffold, the Kd came out at 0.1 nM and the off-rate (koff) amounted to 0.00066 s⁻¹.

For B2, the Kd came to 27.1 nM in assay [1], 10.6 nM in assay [2] and 3.4 nM in assay [3]. The koff was determined as 0.061 s⁻¹ in assay [1], 0.011 s⁻¹ in assay [2] and 0.0085 s⁻¹ in [3].

B3: S2hlx-Ex19 epitope scaffold (designed binder)
chain: MNLDSFKEELDDYFKEKIVKEFEKLCKELISKYEVKKPTPSPEIKKICEYLKKKHEELKDKYPEEFVKEIFKKMWEVFKKELSKQLKKLGVTNDGGEKYKIVKEDLNYLVDVIKSLEGLSDLDLNWEEIWN
On to B3, for which the Kd amounted to 3080 nM with DH1057UCA; 94.1 nM with CC40.8iGL; 690 nM with S2P6iGL; 1.7 nM with S2P6 mAb [6]; 15.5 nM with DH1057.1 mAb [7]. Further, the dissociation rate constant (koff) was found to be 0.0019 s⁻¹ in the assay with DH1057UCA; 0.028 s⁻¹ with CC40.8iGL; 0.0018 s⁻¹ with S2P6iGL; 0.00033 s⁻¹ in the assay with S2P6 mAb [4]; 0.02 s⁻¹ with CC40.8 mAb; 0.027 s⁻¹ with DH1057.1 mAb [5].

With B4, the Kd in [1] is 12.8 nM; in assay [2] it was 48.9 nM; in [3] it was 1.7 nM; with S2hlx-13, 176 nM; in assay [8] it was 0.6 nM; with S2hlx-4 epitope scaffold, 4480 nM. Further, the values for the Kd in the assay with S2hlx-14, with S2hlx-1 and with S2hlx-8 were 404 nM, 353 nM and 175 nM, respectively. Moreover, the koff in assay [1] was 0.014 s⁻¹; in assay [2] it was 0.026 s⁻¹; in assay [3] it was 0.00037 s⁻¹; with S2hlx-13, 0.0032 s⁻¹; in [8], 0.0014 s⁻¹; in the assay with S2hlx-4 epitope scaffold, 0.037 s⁻¹. Further, the koff with S2hlx-14 worked out at 0.018 s⁻¹; with S2hlx-1 it was 0.0091 s⁻¹; in the assay with S2hlx-8 it was 0.0015 s⁻¹.

B5: S2hlx-7 epitope scaffold (designed binder)
chain: MTSTFDRVATIIAETADIPRETITPESHAIDDLGIDELDFLDIAFAIDKAFGISLPLFKWELDVYFGSATTEQYFVLKNLAARIDELVAAKGA
B5: the values for the Kd with S2P6 mAb [9] and with DH1057.1 mAb [10] were 0.2 nM and 0.6 nM, respectively. Moreover, the koff with S2P6 mAb [11] was determined as 0.0025 s⁻¹; with DH1057.1 mAb [12], 0.0026 s⁻¹.

Take B6: the Kd in assay [1] worked out at 29.6 nM; in [2], 10.7 nM; in assay [3] it was 6 nM; with S2hlx-13, 83 nM; in assay [8], 0.7 nM; in the assay with S2hlx-4 epitope scaffold it was 47.7 nM. Moreover, the results for the Kd with S2hlx-14, with S2hlx-1 and with S2hlx-8 were 30 nM, 52.8 nM and 63 nM, respectively. Also, the koff was 0.0082 s⁻¹ in assay [1]; 0.00042 s⁻¹ in [2]; 0.0086 s⁻¹ in assay [3]; 0.0017 s⁻¹ with S2hlx-13; 0.0018 s⁻¹ in [8]; 0.00048 s⁻¹ in the assay with S2hlx-4 epitope scaffold. Further, the dissociation rate constant (koff) in the assay with S2hlx-14 was 0.0016 s⁻¹; with S2hlx-1 it was 0.0027 s⁻¹; with S2hlx-8, 0.00021 s⁻¹.
